How the values were obtained:
Test in all cases: EMSA
Settings in all cases: 12 mM HEPES-KOH pH 7.6, 10 mM MgCl2, 200 mM NaCl, 4 mM Na2HPO4, 4 mM NaH2PO4, 0.4 mM EDTA, 1 mM DTT, 0.5% BSA, 10% glycerol, 200-fold poly(dI-dC), 1 nM DNA …
[1] = target: AraR E30A E30A (Bacillus subtilis) (UniProt P96711)
[2] = target: AraR WT (Bacillus subtilis) (UniProt P96711)
[3] = target: AraR Y5F Y5F (Bacillus subtilis) (UniProt P96711)
[4] = system: AraR Y5F (Bacillus subtilis)
[5] = system: AraR WT (Bacillus subtilis)
[6] = system: AraR E30A (Bacillus subtilis)

Substance | Kd [1] [nM] | Kd [2] [nM] | Kd [3] [nM] | Kd [4] | Kd [5] | Kd [6]
GATTGACAGTATAATAGTCAATTACTATAATAAAATTGGTCGTACAAATATTTATTTATAGGTTTATTTTCTATCATTAGTACGTATCTTTTGTATTTGAAAGCGTTTTATTTTATGAGAAAGGG (double strand) [ORA1 T6->G] | 254 | 56 | 476 |  |  | 
GATTGACAGTATAATAGTCAATTACTATAATAAAATTGTTCGTACAAAGATTTATTTATAGGTTTATTTTCTATCATTAGTACGTATCTTTTGTATTTGAAAGCGTTTTATTTTATGAGAAAGGG (double strand) [ORA1 T16->G] | 347 | 110 | 355 |  |  | 
GATTGACAGTATAATAGTCAATTACTATAATAAAATTGTTCGTACAAATATTTATTTATAGGTTTATTTTCTATCATTAGTACGTATCTTTTGTATTTGAAAGCGTTTTATTTTATGAGAAAGGG (double strand) [araABDLMNPQ-abfA promoter ORA1-ORA2 WT] | 198 | 27 | 274 |  |  | 
GATTGACAGTATAATAGTCAATTACTATAATAAAATTTTTCGTACAAATATTTATTTATAGGTTTATTTTCTATCATTAGTACGTATCTTTTGTATTTGAAAGCGTTTTATTTTATGAGAAAGGG (double strand) [ORA1 G5->T] | 748 | 345 |  |  |  | 
GATTGACAGTATAATAGTCAATTACTATAATAACATTGTTCGTACAAATATTTATTTATAGGTTTATTTTCTATCATTAGTACGTATCTTTTGTATTTGAAAGCGTTTTATTTTATGAGAAAGGG (double strand) [ORA1 A1->C] | 675 | 74 | 331 |  |  | 
ORA1 A1->C |  |  |  | 33.1 10^-8 M | 7.4 10^-8 M | 67.5 10^-8 M
ORA1 G5->T |  |  |  | > 200 10^-8 M | 34.5 10^-8 M | 74.8 10^-8 M
ORA1 T6->G |  |  |  | 47.6 10^-8 M | 5.6 10^-8 M | 25.4 10^-8 M
ORA1 T16->G |  |  |  | 35.5 10^-8 M | 11 10^-8 M | 34.7 10^-8 M
araABDLMNPQ-abfA promoter ORA1-ORA2 WT |  |  |  | 27.4 10^-8 M | 2.7 10^-8 M | 19.8 10^-8 M

Source: paper PMC4218819
